Source: patent US10933119B2, “Aortopathy” (University of Leicester, priority 2015, dated 2021)

Columns and labels:
[1] = system: leukocytes in peripheral blood; experiment: Number of leukocytes in peripheral blood after GM-CSF administration; format: in vivo, mice; set-up: Lymphocytes in peripheral blood: unit not given here; details: for Lymphocytes in peripheral blood / Monocytes in peripheral blood / Neutrophils in peripheral blood: wild type mice
Procedure: (§1) To induce aortic dissection/intramural hematoma, peri-aortic application of CaCl2 was done to the abdominal aorta, followed by two-week infusion of AngII (2000 ng kg−1 min−1) (40). In detail, mice were anesthetized and underwent laparotomy at 10- to 13-weeks of age. The abdominal aorta between the renal arteries and bifurcation of the iliac arteries was isolated from the surrounding retroperitoneal structure, and 0.5 M CaCl2 was applied to the external surface of the infrarenal aorta. NaCl (0.9%) was substituted for CaCl2 in sham control mice. The aorta was rinsed with 0.9% sterile saline after 15 min and the incision was closed.
(§2) Wild-type mice were injected intraperitoneally with 110 mg kg−1 of clodronate liposomes or equal volume of PBS liposomes 2 days prior and 7 days after induction of aortic dissection. Neutralizing antibody against GM-CSF (300 μg, R&D systems) or control anti-rat IgG antibody (Equitech Bio) was administered every other day by intraperitoneal injection. Recombinant murine GM-CSF (10, 50, 100 μg kg−1 day−1, PeproTech) was administered for two weeks or four weeks after induction of aortic dissection.
(§3) Aortas were minced into 3- to 4-mm pieces and placed in 1 ml digestion solution containing collagenase type II (1.25 mg ml−1, Worthington) and porcine pancreatic elastase (50 μg ml−1, Worthington) in base solution of Accumax (Innovative Cell Technologies). Aortic tissue was digested at room temperature with agitation for 1 h. After digestion, cells were washed in FACS buffer (5% FCS in PBS) at 2000 rpm for 5 min. Aortic macrophages were isolated using CD11b microbeads according to the manufacturer's instructions (Miltenyi Biotec). Spleen was homogenized and passed through a cell strainer to obtain single-cell suspensions. Bone marrow-derived cells were taken from the femur and tibia of 5- to 6-week-old mice. Blood was collected in heparin-coated vials and then 1.2% dextran was added for 45 min at room temperature. Counting of peripheral leukocytes was done by automated hematology analyzer (XT-2000i, Sysmex). Neutrophils were isolated from bone marrow using a neurophil isolation kit according to the manufacturer's instructions (Miltenyi Biotec). From single-cell suspensions of spleen, bone marrow and blood, erythrocytes were lysed using ACK lysis buffer for 5, 3 and 2 min on ice, respectively. Cells were centrifuged at 2000 rpm for 5 min to remove the ACK lysis buffer, then the single-cell suspensions were resuspended and washed in FACS buffer, followed by centrifugation at 2000 rpm for 5 min.

[2] = system: leukocytes in peripheral blood; experiment: Number of leukocytes in peripheral blood after GM-CSF blockade by neutralizing antibody; format: in vivo; set-up: Lymphocytes in peripheral blood: unit not given here; details: KLF6fl/fl;LysM Cre mice, CaCl2 + AngII
Procedure: as §1, §2
as §3, with “Neutrophils were isolated from bone marrow using a neurophil isolation kit according to the manufacturer's instructions (Miltenyi Biotec). From single-cell suspensions of spleen, bone marrow and blood, erythrocytes were lysed using ACK lysis buffer for 5, 3 and 2 min on ice, respectively. Cells were centrifuged at 2000 rpm for 5 min to remove the ACK lysis buffer, then the single-cell suspensions were resuspended and washed in FACS buffer, followed by centrifugation at 2000 rpm for 5 min.” left out

wild-type mice = experiment: Murine aortic dissection/intramural hematoma model with recombinant GM-CSF administration; format: in vivo
Procedure: as §1, §2
Aortas from mice were embedded in paraffin then 5-μm-thick serial sections were prepared for Elastic Von Gienson (EVG) and hematoxylin/eosin (HE) staining. Digital images of EVG-stained aortas with reference scale were used for absolute measurement of diameter. Human aortic tissue was obtained from patients undergoing surgical aortic repair with informed consent under a protocol approved by the University of Tokyo hospital research ethics committee. Paraffin-embedded sections were taken from the aorta for EVG staining and immunohistochemistry. […]

[3] = Plasma GM-CSF concentration (ELISA) after recombinant GM-CSF infusion; format: in vivo; details: wild-type mice
Procedure: as §2
Plasma levels of IL-6, MCP-1 and GM-CSF in mice or in humans with or without aortic dissection/intramural hematoma were assayed with commercially available quantikine ELISA kits (R&D systems) according to the manufacturer's instructions. Sera of healthy volunteers and of patients with aortic aneurysm, coronary artery disease or with aortic dissection were obtained with informed consent under a protocol approved by the University of Tokyo hospital research ethics committee.

B1: GM-CSF: Recombinant murine GM-CSF (PeproTech), granulocyte macrophage colony-stimulating factor (protein, UniProt P01587 18-141, looked up)
Granulocyte-macrophage …: APTRSPITVTRPWKHVEAIKEALNLLDDMPVTLNEEVEVVSNEFSFKKLTCVQTRLKIFEQGLRGNFTKLKGALNMTASYYQTYCPPTPETDCETQVTTYADFIDSLKTFLTDIPFECKKPGQK
In the case of B1, the “number of neutrophils in peripheral blood” value ([1]; 14 days of GM-CSF administration) is reported as “no difference”, the “number of neutrophils in peripheral blood” value ([1]; GM-CSF administration, early phase) is reported as “markedly increased” and the “number of circulating lymphocytes” value ([1]; GM-CSF administration, early phase (5 days) or developed phase (14 days)) is reported as “did not change”. For the same molecule, the “Lymphocytes in peripheral blood” value ([1]; CaCl2 + AngII, 5 days) was 1803.3 ± 124.0, the Monocytes in peripheral blood ([1]; CaCl2 + AngII, 5 days) was 387 ± 112 cells/µL and the Neutrophils in peripheral blood ([1]; CaCl2 + AngII, 5 days) was 1690 ± 147 cells/µL. For the same molecule, the “Lymphocytes in peripheral blood” value ([1]; CaCl2 + AngII, 14 days) was 1667.2 ± 371.3, the Monocytes in peripheral blood ([1]; CaCl2 + AngII, 14 days) was 310 ± 45.9 cells/µL and the Neutrophils in peripheral blood ([1]; CaCl2 + AngII, 14 days) was 1050 ± 259 cells/µL. For the same molecule, the “Lymphocytes in peripheral blood” value ([1]; Sham, 5 days) was 3150.0 ± 234.5, the Monocytes in peripheral blood ([1]; Sham, 5 days) was 353 ± 103 cells/µL and the Neutrophils in peripheral blood ([1]; Sham, 5 days) was 2540 ± 454 cells/µL. The “Lymphocytes in peripheral blood” value ([1]; Sham, 14 days) was 3052.0 ± 420.3, the Monocytes in peripheral blood ([1]; Sham, 14 days) was 295 ± 66.2 cells/µL and the Neutrophils in peripheral blood ([1]; Sham, 14 days) was 976 ± 117 cells/µL. For the same molecule, the “Lymphocytes in peripheral blood” value [2] was 1843.3 ± 311.1, the Monocytes in peripheral blood [2] was 82.5 ± 12.5 cells/µL and the Neutrophils in peripheral blood [2] was 786 ± 118 cells/µL. For the same molecule, the aortic dissection/intramural hematoma (wild-type mice; wild-type mice subjected to aortic inflammation (CaCl2+AngII) plus GM-CSF) was “caused”, the death of mice (wild-type mice; wild-type mice, GM-CSF with CaCl2+AngII) was “died from aortic rupture” and the aortic dissection/intramural hematoma (wild-type mice; wild-type mice, administration of GM-CSF alone) was “did not develop”. The “increased circulating levels of GM-CSF” value ([3]; GM-CSF alone, 2 weeks infusion) was “at least 180.9 fold” and the “circulating levels of GM-CSF” value ([3]; combination of GM-CSF with CaCl2 + AngII compared to each alone) was “markedly elevated”.
